# Measured values as given in article PMC11446282.
# System: B55α interactors
# Test: MS analysis of B55α WT, V228A, I284A, S287A and D340A immunopurifications
# Format: binding, human
# Conditions: log2 ratio of interactor abundance, 4 replicates each, normalised to bait B55α; for log2_ratio_D340_WT: B55α D340A vs WT immunopurification; for log2_ratio I284_WT: B55α I284A vs WT immunopurification; for log2_ratio S287_WT: B55α S287A vs WT immunopurification; for log2_ratio V228_WT: B55α V228A vs WT immunopurification
# Procedure: Standard cloning techniques were used throughout. Point mutations were introduced by whole plasmid polymerase chain reaction (PCR). All constructs were fully sequenced. Synthetic DNA was purchased from GeneArt, Life Technologies and cloned into pcDNA5/FRT/TO (Invitrogen) expression vector containing YFP, resulting in the indicated YFP fusion proteins. These constructs were transiently transfected into HeLa cells 24 hours before harvesting cells. Cells were lysed in lysis buffer [50 mM tris-HCl (pH 7.5), 50 mM NaCl, 1 mM EDTA, 1 mM […], and 0.1% NP-40]. Complexes were immunoprecipitated at 4°C in lysis buffer with green fluorescent protein (GFP)–Trap (ChromoTek) and washed in lysis buffer. Precipitated protein complexes were washed three times in lysis buffer, eluted in 2× SDS sample buffer, and subjected to Western blotting or MS as indicated.
# Pull-downs were analyzed on a Q-Exactive Plus quadrupole or Fusion Orbitrap Lumos mass spectrometer (Thermo Fisher Scientific) equipped with Easy-nLC 1000 or […] (Thermo Fisher Scientific) and nanospray source (Thermo Fisher Scientific).
# Static modifications included carbamidomethylcysteine, and variable modifications included oxidized methionine and STY phosphorylation. Searches were filtered using orthogonal measures including mass measurement accuracy (±3 parts per million), Xcorr for charges from +2 to +4, and dCn targeting a <1% false discovery rate at the peptide level. Quantification of LC-MS/MS spectra was performed using MassChroQ ([57]) and the iBAQ method ([58]). All data were analyzed using R 4.3.0. Missing values were imputed from a normal distribution. […] In each dataset, the abundance of the protein of interest was normalized to be equal across all samples. Statistical analyses were done using a two-tailed Student’s t test.
Molecule,log2_ratio_D340_WT,log2_ratio I284_WT,log2_ratio S287_WT,log2_ratio V228_WT
"TBCD4_HUMAN (protein, UniProt O60343 1-1298, looked up) TBC1 domain family member 4: MEPPSCIQDEPFPHPLEPEPGVSAQPGPGKPSDKRFRLWYVGGSCLDHRTTLPMLPWLMAEIRRRSQKPEAGGCGAPAAREVILVLSAPFLRCVPAPGAGASGGTSPSATQPNPAVFIFEHKAQHISRFIHNSHDLTYFAYLIKAQPDDPESQMACHVFRATDPSQVPDVISSIRQLSKAAMKEDAKPSKDNEDAFYNSQKFEVLYCGKVTVTHKKAPSSLIDDCMEKFSLHEQQRLKIQGEQRGPDPGEDLADLEVVVPGSPGDCLPEEADGTDTHLGLPAGASQPALTSSRVCFPERILEDSGFDEQQEFRSRCSSVTGVQRRVHEGSQKSQPRRRHASAPSHVQPSDSEKNRTMLFQVGRFEINLISPDTKSVVLEKNFKDISSCSQGIKHVDHFGFICRESPEPGLSQYICYVFQCASESLVDEVMLTLKQAFSTAAALQSAKTQIKLCEACPMHSLHKLCERIEGLYPPRAKLVIQRHLSSLTDNEQADIFERVQKMKPVSDQEENELVILHLRQLCEAKQKTHVHIGEGPSTISNSTIPENATSSGRFKLDILKNKAKRSLTSSLENIFSRGANRMRGRLGSVDSFERSNSLASEKDYSPGDSPPGTPPASPPSSAWQTFPEEDSDSPQFRRRAHTFSHPPSSTKRKLNLQDGRAQGVRSPLLRQSSSEQCSNLSSVRRMYKESNSSSSLPSLHTSFSAPSFTAPSFLKSFYQNSGRLSPQYENEIRQDTASESSDGEGRKRTSSTCSNESLSVGGTSVTPRRISWRQRIFLRVASPMNKSPSAMQQQDGLDRNELLPLSPLSPTMEEEPLVVFLSGEDDPEKIEERKKSKELRSLWRKAIHQQILLLRMEKENQKLEASRDELQSRKVKLDYEEVGACQKEVLITWDKKLLNCRAKIRCDMEDIHTLLKEGVPKSRRGEIWQFLALQYRLRHRLPNKQQPPDISYKELLKQLTAQQHAILVDLGRTFPTHPYFSVQLGPGQLSLFNLLKAYSLLDKEVGYCQGISFVAGVLLLHMSEEQAFEMLKFLMYDLGFRKQYRPDMMSLQIQMYQLSRLLHDYHRDLYNHLEENEISPSLYAAPWFLTLFASQFSLGFVARVFDIIFLQGTEVIFKVALSLLSSQETLIMECESFENIVEFLKNTLPDMNTSEMEKIITQVFEMDISKQLHAYEVEYHVLQDELQESSYSCEDSETLEKLERANSQLKRQNMDLLEKLQVAHTKIQALESNLENLLTRETKMKSLIRTLEQEKMAYQKTVEQLRKLLPADALVNCDLLLRDLNCNPNNKAKIGNKP",-3.17,-2.61,-1.57,-1.50
"OFD1_HUMAN (protein, UniProt O75665 1-1012, looked up) Centriole and centriolar …: MMAQSNMFTVADVLSQDELRKKLYQTFKDRGILDTLKTQLRNQLIHELMHPVLSGELQPRSISVEGSSLLIGASNSLVADHLQRCGYEYSLSVFFPESGLAKEKVFTMQDLLQLIKINPTSSLYKSLVSGSDKENQKGFLMHFLKELAEYHQAKESCNMETQTSSTFNRDSLAEKLQLIDDQFADAYPQRIKFESLEIKLNEYKREIEEQLRAEMCQKLKFFKDTEIAKIKMEAKKKYEKELTMFQNDFEKACQAKSEALVLREKSTLERIHKHQEIETKEIYAQRQLLLKDMDLLRGREAELKQRVEAFELNQKLQEEKHKSITEALRRQEQNIKSFEETYDRKLKNELLKYQLELKDDYIIRTNRLIEDERKNKEKAVHLQEELIAINSKKEELNQSVNRVKELELELESVKAQSLAITKQNHMLNEKVKEMSDYSLLKEEKLELLAQNKLLKQQLEESRNENLRLLNRLAQPAPELAVFQKELRKAEKAIVVEHEEFESCRQALHKQLQDEIEHSAQLKAQILGYKASVKSLTTQVADLKLQLKQTQTALENEVYCNPKQSVIDRSVNGLINGNVVPCNGEISGDFLNNPFKQENVLARMVASRITNYPTAWVEGSSPDSDLEFVANTKARVKELQQEAERLEKAFRSYHRRVIKNSAKSPLAAKSPPSLHLLEAFKNITSSSPERHIFGEDRVVSEQPQVGTLEERNDVVEALTGSAASRLRGGTSSRRLSSTPLPKAKRSLESEMYLEGLGRSHIASPSPCPDRMPLPSPTESRHSLSIPPVSSPPEQKVGLYRRQTELQDKSEFSDVDKLAFKDNEEFESSFESAGNMPRQLEMGGLSPAGDMSHVDAAAAAVPLSYQHPSVDQKQIEEQKEEEKIREQQVKERRQREERRQSNLQEVLERERRELEKLYQERKMIEESLKIKIKKELEMENELEMSNQEIKDKSAHSENPLEKYMKIIQQEQDQESADKSSKKMVQEGSLVDTLQSSDKVESLTGFSHEELDDSW",2.04,1.52,0.73,-2.22
